Test results reported in patent US20240101645A1 (HENRY M JACKSON FOUNDATION FOR THE ADVANCEMENT OF MILITARY …, published 2024).
Residue numbers refer to the chain shown, from its start.

T1: MERS-CoV spike antigens (bead panel) (MERS-CoV, UniProt K9N5Q8 18-1296)
T1 sequence: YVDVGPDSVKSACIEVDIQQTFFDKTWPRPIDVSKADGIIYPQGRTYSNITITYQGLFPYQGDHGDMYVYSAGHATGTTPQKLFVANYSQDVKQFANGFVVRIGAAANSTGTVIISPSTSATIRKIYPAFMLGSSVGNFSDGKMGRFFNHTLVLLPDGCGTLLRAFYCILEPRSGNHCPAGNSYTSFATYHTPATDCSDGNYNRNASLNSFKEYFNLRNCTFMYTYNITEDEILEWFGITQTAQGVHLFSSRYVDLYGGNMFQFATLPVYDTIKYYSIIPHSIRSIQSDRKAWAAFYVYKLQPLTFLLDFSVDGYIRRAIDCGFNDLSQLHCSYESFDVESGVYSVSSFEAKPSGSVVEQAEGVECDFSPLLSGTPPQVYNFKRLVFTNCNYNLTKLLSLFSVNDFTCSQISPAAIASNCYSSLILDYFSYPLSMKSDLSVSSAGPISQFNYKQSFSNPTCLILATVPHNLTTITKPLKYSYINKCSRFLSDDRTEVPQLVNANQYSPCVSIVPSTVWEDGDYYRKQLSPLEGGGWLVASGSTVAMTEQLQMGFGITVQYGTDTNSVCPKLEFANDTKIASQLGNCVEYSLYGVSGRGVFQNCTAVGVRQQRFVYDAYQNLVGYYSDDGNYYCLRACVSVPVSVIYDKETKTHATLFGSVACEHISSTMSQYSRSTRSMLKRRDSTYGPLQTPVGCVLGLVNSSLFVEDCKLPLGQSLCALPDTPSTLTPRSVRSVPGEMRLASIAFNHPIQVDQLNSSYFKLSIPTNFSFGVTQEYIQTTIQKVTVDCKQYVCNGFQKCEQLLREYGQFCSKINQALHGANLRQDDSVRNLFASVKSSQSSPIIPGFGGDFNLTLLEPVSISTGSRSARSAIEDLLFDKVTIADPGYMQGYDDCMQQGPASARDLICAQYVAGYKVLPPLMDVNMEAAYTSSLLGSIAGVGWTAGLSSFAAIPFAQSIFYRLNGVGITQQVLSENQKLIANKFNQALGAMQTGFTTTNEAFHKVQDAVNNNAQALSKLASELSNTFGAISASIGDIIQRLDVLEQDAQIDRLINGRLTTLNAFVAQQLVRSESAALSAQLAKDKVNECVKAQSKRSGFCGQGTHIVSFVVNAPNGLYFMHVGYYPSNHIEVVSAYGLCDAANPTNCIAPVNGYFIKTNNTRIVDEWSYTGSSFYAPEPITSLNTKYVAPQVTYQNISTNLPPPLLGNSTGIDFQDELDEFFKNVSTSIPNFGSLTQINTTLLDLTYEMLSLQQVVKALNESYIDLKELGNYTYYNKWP

B1: COV_2048 (antibody, V domains shown)
VH: QVQLQESGPGLVKPSETLSLTCTVSGGSISNTSYYWGWIRQPPGKGLEWIGSIYRSGSTYYNPSLKSRVTISIDTSKNQFTLKLSSVTAADTAVYYCARDYYGDYSAKPMEYWGQGTLVTVSS
VL: QSALTQPRSVSGSPGQSVTISCTGTSSDVGGYNYVSWYQQHPGKAPKLLIYDVSKRPSGVPDRFSGSKSGNTASLTISGLQAEDEADYYCCSYAGSYVVFGGGAKLTVLG
notes: human IgG1
B2: COV_1166 (antibody, V domains shown)
VH: EVQLVESGGGLVQPGGSLRLSCAVSGFTFRSFWMSWVRQTPGKGLEWVANIKEDGSEKYYVDSVKGRFTISRDNAKNSLYLQMNSLRAEDTAVYYCAREGRWELLGFAFDIWGQGTMVTVSS
VL: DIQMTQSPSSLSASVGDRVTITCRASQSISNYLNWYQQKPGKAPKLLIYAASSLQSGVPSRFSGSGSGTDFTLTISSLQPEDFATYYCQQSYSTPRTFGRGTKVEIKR
notes: human IgG1
B3: COV_1149 (antibody, V domains shown)
VH: QVQLVESGGGVVQPGRSLRLSCAASGFTFSSYGMHWVRQAPGKGLEWVAVISYDGSNKYYADSVKGRFTISRDNSKNTLYLQMNSLRAEDTAVYYCAKTGGGYSYGLGNVWGQGTLVTVSS
VL: QSALTQPASVSGSPGQSITISCTGTSSDVGGYNYVSWYQQHPGKAPKLMIYDVSNRPSGVSNRFSGSKSGNTASLTISGLQAEDEADYYCSSYTSSSTLVVFGGGTKLTVLG
notes: human IgG1
B4: COV_1144 (antibody, V domains shown)
VH: EVQLVESGGGLVQPGGSLRLSCAASGFTFRSFWMSWVRQAPGKGLEWVANIKEDASEKHYVDPVKGRFTISRDNAKNSLYLQLNSLRAEDMAVYYCARVGRGYCTNGLCYTAFEYWGQGTLVTVSS
VL: DIQMTQSPSSLSASVGDRVTITCRTSQSISNYLNWYQQKPGKAPKLLIYAASSLQSGVPSRFSGSGSGTDFTLTISSLQPEDFATYYCQQSYSTAWTFGQGTKVEIRR
notes: human IgG1
B5: COV_2056 (SEQ ID NO:792/797) (antibody, V domains shown)
VH: EVQLVESGGGVVQPGRSLRLSCAASGFTFSIYGMHWVRQAPGKGLEWVALISYDGTNKYYADSVKGRFSISRDDSKNTLYLQMNSLRPEDTAVYYCAKVLMMGDSSGFSLGDAFDIWGQGTMVTVSS
VL: DIQMTQSPSSVSASVGDRVTITCRASQGISNWLAWYQQKPGKAPKLLIYAASSLQSGVPSRFSGSVSGTDFTLTISSLQPEDFATYYCQQANSFPLTFGGGTKVDIKR
B6: COV_2174 (antibody, V domains shown)
VH: EVQLAESGGGLVKPGGSLRLSCAASGFTFSDYYMSWIRQAPGKGLEWVSYISSSGSTIYYADSVKGRFTISRDNAKNSLYLQMNSLRAEDTAVYYCARDWSVVVVPAAPAVDVWGQGTTVTVSS
VL: B5 VL with V11L, W32Y, Y36F, L46S, R61K, V66G, A91Y, F94Y, D105E
notes: human IgG1
B7: COV_2077 (antibody, V domains shown)
VH: QVQLQESGPGLVKPSETLSLTCTVSGGSISSYSWSWIRQPPGKGLEWIGYIYYSGSTNYNPSLKSRVTISVDTSKNQFSLKLSSVTAADTAVYYCARESMGRYSLELRQPESAFDYWGRGTLVTVSS
VL: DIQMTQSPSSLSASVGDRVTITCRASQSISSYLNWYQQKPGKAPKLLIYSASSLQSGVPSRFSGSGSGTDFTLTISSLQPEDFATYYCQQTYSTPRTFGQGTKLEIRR
notes: human IgG1
B8: COV_1170 (antibody, V domains shown)
VH: QVQLVESGGGVVQPGRSLRLSCAASGFTFSTYAMHWVRQAPGKGLEWVALISYDGSNKYYADSVKGRFTISRDNSKNTLDLQMNSLRAEDTAVYYCARSLGGYRTGFDYWGQGTLVTVSS
VL: DIQLTQSPSFLSASVGDRVTITCRASQGISSYLAWYQQKPGKAPKLLIYAASTLQSGVPSRFSGSGSGTEFTLTISSLQPEDFATYYCQQLNSYPPFTFGPGTKVDIKR
notes: human IgG1
B9: COV_2093 (antibody, V domains shown)
VH: EVQLVESGGGLVQPGGSLRLSCAASGFMFNRFWMSWVRQAPGKGLEWVTNIKQDGSEKNYVDSVKGRFTISRDNAKNSLYLQMNSLRAEDTAVYYCARDGLYYDFRSPSPFYGMDVWGQGTTVTVSS
VL: DIQMTQSPSSLSASVGDRVTITCRASQSISSYLNWYQHKSGKAPKLLIYAASRLQSGVPSRFSGSGSGTDFTLTIVSLQPEDLATYYCQQSYSTPRTFGGGTKVEIKR
notes: human IgG1
B10: COV_3088 (antibody, V domains shown)
VH: EVQLVESGGGLVQPGGSLRLSCAASGFTFSSYDMHWVRQATGKGLEWVSAIGTAGDTYYPGSVKGRFTISRENAKNSLYLQMNSLRAGDTAVYYCARGSGWPPFFDYWGQGTLVTVSS
VL: SYELTQPPSVSVAPGKTARITCGGNNIGSKSVHWYQQKPGQAPVLVIYYDSDRPSGIPERFSGSNSGNTATLTISRVEAGDEADYYCQVWDSSSDHHWVFGGGTKLTVL
notes: human IgG1
B11: COV_1050 (antibody, V domains shown)
VH: QVQLVESGGGVVQPGRSLRLSCAASRFTFSSYAMHWVRQAPGKGLEWVAVISFDGSNKYYADSVKGRFTIFRDNSKNTLSLQMNSLRTEDTAMYYCASPAGYYESLWGQGTLVTVSS
VL: SYELTQPPSVSVSPGQTARVTCSGDALSKQYGFWYQQKPGQAPTLVIYKDTERPSGIPERFSGSGSGTTVTLTISGVQAEDEADYYCQSTDNSGRWVFGGGTKLTVLG
notes: human IgG1
B12: COV_2172 (SEQ ID NO:872/877) (antibody, V domains shown)
VH: EVQLVESGGGVVQPGRSLRLSCAPSGFTFSTYAMHWVRQAPGKGLEWVAVISYDGSIKYYADSVKGRFTISRDNTMNTVFLQMNSLRAEDTAVYFCAKGGERWELFTSFDYWGQGTQVTVSS
VL: QSALTQPRSVSGSPGQSVTISCTGTSSDVGGYNYVSWYQQHPGKAPKLMIYDVSKRPSGVPDRFSGSKSGNTASLTISGLQAEDEADYYCCSYAGSYTFVFGGGTKLTVLG
B13: COV_1172 (antibody, V domains shown)
VH: QVQLQESGPGLVKPSETLSLTCTVSGGSIRSYYWSWIRQPPGKGLEWIGYIYYSGSTNYSPSLKSRVTISVDTSKNQFSLKLNSVTAADTAVYYCARRGLGYCSGDSCSNAFDIWGQGTMVTVSS
VL: DIQMTQSPSSLSASVGDRVTITCRASQSISSYLNWYQQKPGRAPELLIYDASSLQSGVPSGFSGSGSGTDFTLTISSLQPEDFATYYCQQSYSTPFTFGPGTKVDIKR
notes: human IgG1
B14: COV_1151 (antibody, V domains shown)
VH: QVQVQQWGAGLLKPSETLSLTCAVYGGSFNNYYWSWIRQPPGKGLEWIGEINHSGSTNYNPSLMSRVTISVDTSKNQFSLKLTSVTAADTAVYFCARGLPVTTFFSSYYGMDVWGQGTTVTVSS
VL: EIVLTQSPGTLSLSPGERATLSCRASQSVSRTYLAWYQQKPGQAPRLLIYGASSRATGIPDRFSGSGSGTDFTLTISRLEPEDFAVYYCQHYGSSPWTFGQGTKVEIRR
notes: human IgG1
B15: COV_2014 (antibody, V domains shown)
VH: QVQLVQSGAEVKKPGASVKVSCKVSGYTLTELSMHWVRQAPGKGLEWMGGFDPEDGETIYAQKFQGRVTMTEDTSTDTAYMELSSLRSEDTAVYYCATGKINYYDSSGYYGTFDYWGQGTLVTVSS
VL: AIQLTQSPSSLSASVGDRVTITCRASQGISSYLAWYQQKPGKAPKLLIYAASTLQSGVPSRFSGSGSGTDFTLTISSLQPEDFATYYCQQLNSYHLTFGQGTRLEIK
notes: human IgG1
B16: COV_2143 (antibody, V domains shown)
VH: EVQLVESGGGVVQPGRSLRLSCAASGFTFNSFAMLWVRQAPGKGLEWVALFSYDGSNKYYADSVKGRFTISRDNSKNTLYLQMNNLRAVDTAVYYCARASPYDINGYYLHRIAFDIWGQGTMVTVSS
VL: QSVLMQPPSVSGAPGQRVTISCTGSSSNIGAGYDVHWYQQLPGTAPKLLMYGNSNRPSGVPDRFSGSKSGTSASLAITGLQAEDEADYYCQSYDSGLSGWVFGGGTKLTVLG
notes: human IgG1
B17: COV_3077 (antibody, V domains shown)
VH: QVQLQESGPGLVKPSETLSLTCAVSGYSISSGYYWGWIRQPPGKGLEWIGSIYHSGSTYYNPSLKSRVTISVDTSKNQFSLKLSSVTAADTAVYYCARALYDAFDIWGQGTMVTVSS
VL: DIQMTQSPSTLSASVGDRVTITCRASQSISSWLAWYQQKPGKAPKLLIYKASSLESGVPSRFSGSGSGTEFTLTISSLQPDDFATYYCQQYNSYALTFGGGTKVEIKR
notes: human IgG1
B18: COV_1201 (antibody, V domains shown)
VH: QVQLVQSGAEVKKPGASMKVSCKASGYTFTGYYIHWVRQAPGQGLEWMGRINPNSGGTNYAQKFQGRVTMTRDTSISTAYMELSRLRSDDTAVYYCAREYYYVPYGMDVWGQGTTVTVSS
VL: QSALTQPASVSGSPGQSITISCTGTSSDVGGYNFVSWYQHHPGKAPKLMIYEVSNRPSGVSNRFSGSKSGNTASLTISGLQAEDEADYYCSSYTSSSTYVFGTGTKVTVL
notes: human IgG1

target: T1, MERS-CoV spike antigens (bead panel); experiment: multiplex bead assay

Binder	binding result
B1	no binding
B2	no binding
B3	no binding
B4	no binding
B5	no binding
B6	no binding
B7	no binding
B8	no binding
B9	no binding
B10	no binding
B11	no binding
B12	no binding
B13	no binding
B14	no binding
B15	no binding
B16	no binding
B17	no binding
B18	no binding
